Laboratory results as given in article PMC7948501, “Structure of transmembrane prolyl 4-hydroxylase reveals unique organization of EF and dioxygenase domains” (The Journal of Biological Chemistry, 2020).

Molecular target: the molecule itself
Test: SEC-SAXS; 7.4 mg/ml on Superdex 200 Increase 5/150, RT; 10 mM Tris HCl pH 7.8, 0.1 M NaCl, 0.1 M glycine, 1% glycerol, with and without 2 mM CaCl2; Bayesian molecular weight estimate

B1: soluble human transmembrane prolyl 4-hydroxylase (P4H-TM), residues 88 to 502 with an N-terminal His-tag (enzyme, UniProt Q9NXG6-1 88-502, looked up)
chain: DESSDPGPQHRAQGPGPEPTLGPLTRLEGIKVGHERKVQLVTDRDHFIRTLSLKPLLFEIPGFLTDEECRLIIHLAQMKGLQRSQILPTEEYEEAMSTMQVSQLDLFRLLDQNRDGHLQLREVLAQTRLGNGWWMTPESIQEMYAAIKADPDGDGVLSLQEFSNMDLRDFHKYMRSHKAESSELVRNSHHTWLYQGEGAHHIMRAIRQRVLRLTRLSPEIVELSEPLQVVRYGEGGHYHAHVDSGPVYPETICSHTKLVANESVPFETSCRYMTVLFYLNNVTGGGETVFPVADNRTYDEMSLIQDDVDLRDTRRHCDKGNLRVKPQQGTAVFWYNYLPDGQGWVGDVDDYSLHGGCLVTRGTKWIANNWINVDPSRARQALFQQEMARLAREGGTDSQPEWALDRAYRDARVEL
modifications: N-linked glycans at Asn368 and Asn382
notes: human transmembrane prolyl 4-hydroxylase (P4H-TM), isoform 1 (502 residues), residues 88-502; lacks the short cytoplasmic region and the transmembrane helix; then six histidines and residues 88-502; Calculated mass 48.3 kDa; also called soluble part of human P4H-TM; isoform 1; not shown: His6, N-terminal, kept
In the case of B1, the “stoichiometry N” value is reported as 2.
